Residue numbers refer to the chain shown, from its start. Each block holds one binder with its values, some of them ahead of it.
What was measured:
[1] = target: T1, soluble human FcRn (complex of FcRn and beta2-microglobulin) (human, UniProt P55899 24-290; P61769 21-119); assay: Biacore 3000, antibody captured, human FcRn as analyte, pH 6.0
T1 construct: Expressed constructs contain the signal regions (FcRn Met1-Leu290; beta2-microglobulin Met1-Met119); Secreted from HEK293H cells and purified; also called hFcRn
Procedure: (§1) The binding to human FcRn was assessed using Biacore 3000. An antibody was bound to Protein L or rabbit anti-human IgG Kappa chain antibody immobilized onto a sensor chip, human FcRn was added as an analyte for interaction with the antibody, and the affinity (KD) was calculated from the amount of bound human FcRn. Specifically, Protein L or rabbit anti-human IgG Kappa chain antibody was immobilized onto sensor chip CM5 (BIACORE) by the amine coupling method using 50 mM Na-phosphate buffer (pH 6.0) containing 150 mM NaCl as the running buffer. […] Human FcRn was then injected and the binding of the human FcRn to antibody was assessed.
(§2) The obtained sensorgram was used to calculate the amount of hFcRn bound to the antibody immediately before the end of human FcRn injection. The affinity of the antibody for human FcRn was calculated by fitting with the steady state affinity method.

[2] = target: T1, soluble human FcRn (complex of FcRn and …); assay: Biacore 3000, antibody captured on Protein L or rabbit anti-human kappa antibody, human FcRn as analyte, pH 6.0, steady state affinity
Procedure: as §1, §2

[3] = target: T1, soluble human FcRn (complex of FcRn and …); assay: Biacore 3000, antibody captured, human FcRn as analyte, pH 6.0, steady state affinity
Procedure: as §1
The affinity was computed using BIAevaluation Software. The obtained sensorgram was used to calculate the amount of hFcRn bound to the antibody immediately before the end of human FcRn injection. The affinity of the antibody for human FcRn was calculated by fitting with the steady state affinity method.
The resulting antibodies were assessed for their human FcRn-binding activity by the method described above.

[4] = target: T1, soluble human FcRn (complex of FcRn and …); assay: Biacore T100, human FcRn immobilized on CM4 chip, antibody as analyte (divalent avidity), pH 6.0, 25 C, KD from ka and kd
Procedure: Then, the present inventors assessed in this Example the binding of IgG to FcRn with divalent avidity by immobilizing human FcRn onto a sensor chip and injecting IgG as an analyte to more closely mimic the in vivo case.
First, about 2,000 RU of human FcRn was immobilized onto sensor chip CM4 (GE Healthcare) by the amino coupling method. Reagents used in the amino coupling were: ethanol amine (GE Healthcare), 50 mM NaOH solution (GE Healthcare), NHS (GE Healthcare), EDC (GE Healthcare). HBS-EP+ solution (10×HBS-EP+ solution (GE Healthcare) was used after dilution) was used as the mobile phase. Then, antibodies were each injected as an analyte into the sensor chip immobilized with human FcRn for three minutes to observe the binding of FcRn to the antibodies. After this observation, the mobile phase was injected for five minutes to assess the dissociation of each antibody variants from FcRn. All measurements were carried out at 25° C. The mobile phase used was 10 mM Cit (pH 6.0)/150 mM NaCl/0.05% Tween20.
From the obtained sensorgrams, the association rate constant ka (1/Ms) and dissociation rate constant kd (1/s) were calculated for the three minutes of binding phase using Biacore T100 Evaluation Software (GE Healthcare). The dissociation constant KD (M) was determined based on these values.

B1: IL6R H0-M58/L0-k0 (antibody, IgG2)
heavy: QVQLQESGPGLVRPSQTLSLTCTVSGYSITSDHAWSWVRQPPGRGLEWIGYISYSGITTYNPSLKSRVTMLRDTSKNQFSLRLSSVTAADTAVYYCARSLARTTAMDYWGQGSLVTVSSASTKGPSVFPLAPSSKSTSGGTAALGCLVKDYFPEPVTVSWNSGALTSGVHTFPAVLQSSGLYSLSSVVTVPSSNFGTQTYTCNVDHKPSNTKVDKTVERKSCVECPPCPAPPVAGPSVFLFPPKPKDTLMISRTPEVTCVVVDVSQEDPEVQFNWYVDGVEVHNAKTKPREEQFNSTFRVVSVLTVVHQDWLNGKEYKCKVSNKGLPAPIEKTISKTKGQPREPQVYTLPPSQEEMTKNQVSLTCLVKGFYPSDIAVEWESNGQPENNYKTTPPMLDSDGSFFLYSKLTVDKSRWQEGNVFSCSVMHEALHNHYTQKSLSLSP
light: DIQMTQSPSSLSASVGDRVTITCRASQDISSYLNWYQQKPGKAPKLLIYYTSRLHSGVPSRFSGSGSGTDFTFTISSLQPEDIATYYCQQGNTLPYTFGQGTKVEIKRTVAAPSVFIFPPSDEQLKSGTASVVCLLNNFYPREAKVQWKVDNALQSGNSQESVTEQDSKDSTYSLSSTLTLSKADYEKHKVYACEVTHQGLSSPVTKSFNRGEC
notes: L-chain constant region k0; also called M58-k0 (anti-IL-6 receptor antibody)
fold increase of binding compared to IL6R H0-IgG1/L0-k0 [1]: ~1.4 times
Kd [2]: 1030 nM
Kd [3]: 1030 nM
Kd [4]: 3.85 nM

B5: IL31R H0-M58/L0-k0 (antibody)
heavy: QVQLVQSGAEVKKPGASVKVSCKASGYTFTGYIMNWVRQAPGQGLEWMGLINPYNGGTSYNQKFKGRVTITADESTSTAYMELSSLRSEDTAVYYCARDGYDDGPYTMDYWGQGTLVTVSSASTKGPSVFPLAPSSKSTSGGTAALGCLVKDYFPEPVTVSWNSGALTSGVHTFPAVLQSSGLYSLSSVVTVPSSNFGTQTYTCNVDHKPSNTKVDKTVERKSCVECPPCPAPPVAGPSVFLFPPKPKDTLMISRTPEVTCVVVDVSQEDPEVQFNWYVDGVEVHNAKTKPREEQFNSTFRVVSVLTVVHQDWLNGKEYKCKVSNKGLPAPIEKTISKTKGQPREPQVYTLPPSQEEMTKNQVSLTCLVKGFYPSDIAVEWESNGQPENNYKTTPPMLDSDGSFFLYSKLTVDKSRWQEGNVFSCSVMHEALHNHYTQKSLSLSP
light: DIQMTQSPSSLSASVGDRVTITCRTSENIYSFLAWYQQKPGKAPKLLIYNAKTLAKGVPSRFSGSGSGTDFTLTISSLQPEDFATYYCQHHYESPLTFGGGTKVEIKRTVAAPSVFIFPPSDEQLKSGTASVVCLLNNFYPREAKVQWKVDNALQSGNSQESVTEQDSKDSTYSLSSTLTLSKADYEKHKVYACEVTHQGLSSPVTKSFNRGEC
notes: also called anti-IL-31 receptor antibody, M58-k0
Kd [3]: 910 nM

Continued, values first:

Kd [4]: 3.26 nM
B2: IL6R H0-M66/L0-k3 (antibody)
heavy: B1 heavy with S221C, C222S
light: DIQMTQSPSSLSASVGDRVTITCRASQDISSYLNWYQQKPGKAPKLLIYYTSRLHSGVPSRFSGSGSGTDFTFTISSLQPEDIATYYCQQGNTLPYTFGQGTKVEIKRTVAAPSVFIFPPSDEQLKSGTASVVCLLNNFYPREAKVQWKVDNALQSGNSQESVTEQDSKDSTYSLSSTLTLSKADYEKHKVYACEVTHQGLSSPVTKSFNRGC
notes: also called M66-k3

Kd [4]: 3.54 nM
B3: IL6R H0-M66/L0-k0 (antibody)
heavy: B1 heavy with S221C, C222S
light: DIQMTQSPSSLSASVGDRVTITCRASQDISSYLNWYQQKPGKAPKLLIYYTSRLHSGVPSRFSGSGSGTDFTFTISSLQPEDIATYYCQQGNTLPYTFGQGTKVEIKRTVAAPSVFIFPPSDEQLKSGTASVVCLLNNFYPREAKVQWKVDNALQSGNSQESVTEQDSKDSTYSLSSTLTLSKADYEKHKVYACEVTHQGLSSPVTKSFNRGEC
notes: L-chain constant region k0; also called M66-k0

Kd [3]: 1070 nM
B4: IL31R H0-IgG1/L0-k0 (antibody)
heavy: not shown
light: B5 light
notes: also called anti-IL-31 receptor antibody, IgG1-k0

— US20190211081A1 (Chugai, published 2019)
